Positions count from the first letter of the chain named. Where two headings read alike, the source gives them in different places.

The target of data set [1] is T1, GR DBD WT (rat, UniProt P06536 440-525). Nature of the data set: SPR. (SPR reads the build-up and loss of mass on a sensor chip optically.)
The target in data set [2] is T1, GR DBD WT. Nature of the data set: NMR.
The target in data set [3] is T2, GR DBD A477T (rat, UniProt P06536 440-525, A477T). Nature of the data set: NMR.
Data set [4] has as its target T1, GR DBD WT. Put plainly: NMR. The source holds these as a separate data set.
In data set [5] the target is T2, GR DBD A477T. Put plainly: NMR. The source holds these as a separate data set.
The data set “[…]” concerns the molecule itself. Nature of the data set: […].
The data set “SPR” concerns the molecule itself. Put plainly: SPR.
The target of data set [6] is T1, GR DBD WT. Put plainly: NMR. The source holds these as a separate data set.

B1: Pal-R GBS (dsDNA)
DNA 1: GTACAGAACATTTTGTTCTTCGAC
DNA 2: GTCGAAGAACAAAATGTTCTGTAC
For B1, the binding result with GR DBD WT [1] is given as “binds”.

B2: Gha GBS (dsDNA)
DNA 1: GTACGGAACATAATGTTCCTCGAC
DNA 2: GTCGAGGAACATTATGTTCCGTAC
Take B2: the binding result with GR DBD WT [2] and with GR DBD A477T [3] was “binds” each time.

B3: Sgk GBS (dsDNA)
DNA 1: GTACAGAACATTTTGTCCGTCGAC
DNA 2: GTCGACGGACAAAATGTTCTGTAC
With B3, the binding result with GR DBD A477T [3] and with GR DBD WT [4] was “binds” in each case.

B4: Sgk-ggg GBS (dsDNA)
DNA 1: GTACAGAACAGGGTGTCCGTCGAC
DNA 2: GTCGACGGACACCCTGTTCTGTAC
Consider B4, for which the binding result with GR DBD WT [4] is “binds”.

B5: Fkbp5 GBS (dsDNA)
DNA 1: GTACAGAACAGGGTGTTCTTCGAC
DNA 2: GTCGAAGAACACCCTGTTCTGTAC
Turning to B5, the binding result in the data set with GR DBD WT [4] and with GR DBD A477T [5] was “binds” each time.

B6: rat glucocorticoid receptor DNA binding domain, wild type (domain or fragment)
chain: CLVCSDEASGCHYGVLTCGSCKVFFKRAVEGQHNYLCAGRNDCIIDKIRRKNCPACRYRKCLQAGMNLEARKTKKKIKGIQQATAG
Consider B6, for which the binding result in data set […] is recorded as “binds”.

B7: rat glucocorticoid receptor DNA binding domain, [change] mutant (domain or fragment)
chain: B6 chain with A38T
Consider B7, for which the binding result in the data set “SPR” is reported as “binds”.

B8: Gilz GBS (dsDNA)
DNA 1: GTACAGAACATTGGGTTCCTCGAC
DNA 2: GTCGAGGAACCCAATGTTCTGTAC
B8: the binding result with GR DBD WT [6] is “binds”.

B9: Pal-ttg GBS (dsDNA)
DNA 1: GTACAGAACATTGTGTTCTTCGAC
DNA 2: GTCGAAGAACACAATGTTCTGTAC
For the molecule B9, in the data set with GR DBD WT [6], the binding result is recorded as “binds”.
